Measured values from US20230203097A1.
Where no end group is shown, it is not given here.

Tests used:
[1] = molecular target: recombinant MAVS protein; experiment: fluorescence-labeled peptide titrated on plate-coated recombinant MAVS (250 ng per well), fluorescence read-out
[2] = molecular target: recombinant MAVS protein; experiment: fluorescence-labeled peptide titrated on plate-coated recombinant MAVS; ratio of the Kd of MQP-37 to that of MQP-37A6

Chain of recombinant MAVS protein (Q7Z434 2-540): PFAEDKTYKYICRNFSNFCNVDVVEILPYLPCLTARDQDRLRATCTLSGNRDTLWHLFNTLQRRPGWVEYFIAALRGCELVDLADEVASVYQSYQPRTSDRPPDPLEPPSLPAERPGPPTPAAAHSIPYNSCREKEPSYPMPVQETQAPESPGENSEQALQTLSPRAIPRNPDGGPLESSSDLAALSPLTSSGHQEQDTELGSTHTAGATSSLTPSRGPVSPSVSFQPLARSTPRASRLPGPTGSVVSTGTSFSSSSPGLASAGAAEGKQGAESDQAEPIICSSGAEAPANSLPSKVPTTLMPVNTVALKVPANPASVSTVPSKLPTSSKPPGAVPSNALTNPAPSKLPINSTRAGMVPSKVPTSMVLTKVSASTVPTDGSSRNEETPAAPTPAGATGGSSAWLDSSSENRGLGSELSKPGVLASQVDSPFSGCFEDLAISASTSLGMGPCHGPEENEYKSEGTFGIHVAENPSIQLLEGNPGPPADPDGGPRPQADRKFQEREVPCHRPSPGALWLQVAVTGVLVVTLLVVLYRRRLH

Question: Which Kd [1] does the source give for SLVLADARW (also: fluorescence-labeled, label and position not given here) [fluorescence-labeled peptide MQP-37] here?
Answer: 16 mM

Question: How did the Kd [1] turn out when SLVLAAARW (also: fluorescence-labeled, label and position not given here) [fluorescence-labeled novel alanine-substituted peptide MQP-37A6] was run?
Answer: 0.75 mM

Question: What about the fold binding affinity against MQP-37 [2] of the same binder?
Answer: 20 times
